Drawing on patent publication US20120263728A1, this text covers Nav1.7 inhibition (%) and inhibition of Nav1.7 currents for 3 molecules.

Assay [1] deals with human Nav1.7 channel (type IX voltage-gated sodium channel alpha subunit) (human) (UniProt Q15858). Nature of the assay: cell-based or functional assay.
Assay [2] addresses recombinant rat Nav1.7 channels expressed in HEK cells (rat) (UniProt O08562). The assay can be described thus: cell-based or functional assay.
Sequence of UniProt O08562 (O08562 whole entry): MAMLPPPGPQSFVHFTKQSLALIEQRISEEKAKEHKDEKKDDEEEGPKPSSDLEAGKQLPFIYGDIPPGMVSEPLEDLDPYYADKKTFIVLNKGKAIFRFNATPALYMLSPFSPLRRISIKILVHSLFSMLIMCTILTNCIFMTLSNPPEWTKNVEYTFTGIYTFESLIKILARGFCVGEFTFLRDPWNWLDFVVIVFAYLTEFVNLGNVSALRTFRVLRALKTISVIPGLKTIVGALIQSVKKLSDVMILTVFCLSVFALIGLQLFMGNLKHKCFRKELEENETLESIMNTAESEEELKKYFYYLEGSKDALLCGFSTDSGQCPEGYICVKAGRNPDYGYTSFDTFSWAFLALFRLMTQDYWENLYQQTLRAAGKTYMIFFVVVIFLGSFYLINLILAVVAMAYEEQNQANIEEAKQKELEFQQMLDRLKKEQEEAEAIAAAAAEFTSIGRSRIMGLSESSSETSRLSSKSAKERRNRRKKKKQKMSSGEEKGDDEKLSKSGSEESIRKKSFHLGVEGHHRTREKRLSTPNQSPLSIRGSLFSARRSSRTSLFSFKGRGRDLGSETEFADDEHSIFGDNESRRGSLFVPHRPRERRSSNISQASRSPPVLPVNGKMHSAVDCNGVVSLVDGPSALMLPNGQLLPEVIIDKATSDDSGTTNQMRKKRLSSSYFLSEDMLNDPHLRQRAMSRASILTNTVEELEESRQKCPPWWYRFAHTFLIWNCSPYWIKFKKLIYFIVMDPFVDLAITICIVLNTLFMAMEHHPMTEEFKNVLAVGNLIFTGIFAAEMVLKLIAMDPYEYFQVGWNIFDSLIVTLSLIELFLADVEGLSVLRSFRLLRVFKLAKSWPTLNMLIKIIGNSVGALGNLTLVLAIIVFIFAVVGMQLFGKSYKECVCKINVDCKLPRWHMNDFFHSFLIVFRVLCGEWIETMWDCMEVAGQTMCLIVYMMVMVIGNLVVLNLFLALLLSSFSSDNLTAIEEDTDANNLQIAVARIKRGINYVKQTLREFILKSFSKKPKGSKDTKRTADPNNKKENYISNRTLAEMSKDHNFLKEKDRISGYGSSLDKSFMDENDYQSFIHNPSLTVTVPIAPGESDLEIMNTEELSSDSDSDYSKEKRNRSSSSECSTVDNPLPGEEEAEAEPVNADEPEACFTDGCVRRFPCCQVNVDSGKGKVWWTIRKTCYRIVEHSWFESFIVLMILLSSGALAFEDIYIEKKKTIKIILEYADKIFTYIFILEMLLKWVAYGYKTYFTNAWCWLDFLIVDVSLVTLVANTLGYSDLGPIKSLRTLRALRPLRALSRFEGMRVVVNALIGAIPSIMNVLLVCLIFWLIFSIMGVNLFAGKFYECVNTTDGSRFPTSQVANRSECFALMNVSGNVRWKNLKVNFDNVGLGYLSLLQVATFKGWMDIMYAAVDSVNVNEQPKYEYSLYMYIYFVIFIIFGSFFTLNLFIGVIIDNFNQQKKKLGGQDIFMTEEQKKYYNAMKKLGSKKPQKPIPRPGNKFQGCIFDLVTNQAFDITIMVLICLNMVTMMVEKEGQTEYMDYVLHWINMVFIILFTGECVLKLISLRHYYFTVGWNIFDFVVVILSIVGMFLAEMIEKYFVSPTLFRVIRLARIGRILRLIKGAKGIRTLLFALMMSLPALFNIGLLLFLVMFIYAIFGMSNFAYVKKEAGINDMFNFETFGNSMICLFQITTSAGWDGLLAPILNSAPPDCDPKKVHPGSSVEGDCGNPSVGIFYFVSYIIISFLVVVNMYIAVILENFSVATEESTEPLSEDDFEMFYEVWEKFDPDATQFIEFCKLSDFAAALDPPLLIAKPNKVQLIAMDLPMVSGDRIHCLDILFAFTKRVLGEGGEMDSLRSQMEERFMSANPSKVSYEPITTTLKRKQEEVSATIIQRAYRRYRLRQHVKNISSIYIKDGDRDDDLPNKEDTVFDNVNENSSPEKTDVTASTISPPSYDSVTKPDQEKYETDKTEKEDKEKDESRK

B1: CA167_01080 (antibody, from another filing, rabbit IgG1, V domains shown)
VH: QSLEESGGRLVTPETPLTLTCTASGIDLSKWPMTWVRQAPGKGLEWIGIIGRSGSTNYASWAKGRFTISKTSTTVDLKMTSPTTEDTATYFCARGGSYYDLWGQGTLVTVS
VL: AQVLTQTASPVSAAVGNTVTITCQSSQSVWKNNDLSWYQQKLGQPPKLLIYYASTLASGVSSRFKASGSGTQFTLTISDVQCDDAGTYYCVGSYDCSSADCNAFGGGTKVVVK
The molecule B1 had a Nav1.7 inhibition (%) at 25 µg/ml, automated patch clamp on HEK cells in assay [1] of 46%. In addition, the inhibition of Nav1.7 currents at 25 µg/ml, automated Patch Clamp in assay [2] amounted to 26%.

B2: CA167_00983 (antibody, from another filing, rabbit IgG1, V domains shown)
VH: QSVEESGGRLVTPGTPLTLTCTVSGFSLSNYAMSWVRQAPGKGLEWIGIIGKSGSTAYASWAKGRFTISRTSTTVDLEITSPTTEDTATYFCVRFVLLWGPGTLVTVS
VL: AQVLTQTASPVSAAVGGTVTINCQSSQSVYKNNDLAWYQQKPGQPPKLLIYYASTLASGVSSRFKGSGSGTEFTLTISDAQCDDAATYYCLGSYDCSSADCNAFGGGTKVVVK
In assay [1], B2 came in with a Nav1.7 inhibition (%) at 25 µg/ml, automated patch clamp on HEK cells of 41%.

B3: CA167_00932 (antibody, from another filing, rabbit IgG1, V domains shown)
VH: QSLEESGGRLVTPGTPLTLTCTVSGFSLSRYWMSWVRQAPGKGLEWIGNIGGGSGSTLYAPWAKGRSTISKTSTTVDLKITSPTTEDTATYFCGRYVKNGGGYRLDLWGPGTLVTVS
VL: AAVLTQTPSSVSAAVGGTVTIKCQSSQSVYNNNEFSWYQQKPGQPPKLLIYDASKLASGVPSRFSGSGSGTQFTLTISGVQCDDVATYYCLGGYNDDTNRWAFGGGTEVVVE
In assay [1], B3 had a Nav1.7 inhibition (%) at 25 µg/ml, automated patch clamp on HEK cells of 27%.
